Measurements published in patent US20230002480A1.

Key:
Test in all cases: cell-based or functional assay
[1] = biological target: HIV-1 Env of pseudovirus 0260.v5.c36 (HIV-1)
[2] = biological target: HIV-1 Env of pseudovirus 1394C9G1(Rev-) (HIV-1)
[3] = biological target: HIV-1 Env of pseudovirus 191084 B7-19 (HIV-1)
[4] = biological target: HIV-1 Env of pseudovirus 246F C1G (HIV-1)
[5] = biological target: HIV-1 Env of pseudovirus 7030102001E5(Rev-) (HIV-1)
[6] = biological target: HIV-1 Env of pseudovirus AC10.0.29 (HIV-1)
[7] = biological target: HIV-1 Env of pseudovirus BF1266.431a (HIV-1)
[8] = biological target: HIV-1 Env of pseudovirus CAAN5342.A2 (HIV-1)
[9] = biological target: HIV-1 Env of pseudovirus Ce703010054_2A2 (HIV-1)
[10] = biological target: HIV-1 Env of pseudovirus Du172.17 (HIV-1)
[11] = biological target: HIV-1 Env of pseudovirus Du422.1 (HIV-1)
[12] = biological target: HIV-1 Env of pseudovirus HIV-16055-2.3 (HIV-1)
[13] = biological target: HIV-1 Env of pseudovirus Q23.17 (HIV-1)
[14] = biological target: HIV-1 Env of pseudovirus REJO4541.67 (HIV-1)
[15] = biological target: HIV-1 Env of pseudovirus SC422661.8 (HIV-1)
[16] = biological target: HIV-1 Env of pseudovirus T250-4 (HIV-1)
[17] = biological target: HIV-1 Env of pseudovirus THRO4156.18 (HIV-1)
[18] = biological target: HIV-1 Env of pseudovirus WITO4160.33 (HIV-1)
[19] = biological target: HIV-1 Env of pseudovirus ZM197M.PB7 (HIV-1)
[20] = biological target: HIV-1 Env of pseudovirus ZM53M.PB12 (HIV-1)

For 10E8 (antibody), the IC50, titer in TZM.bl cells [1] was over 10 µg/mL, the IC80, titer in TZM.bl cells [1] was over 10 µg/mL and the IC50, titer in TZM.bl cells [2] was 0.963 µg/mL. The IC80, titer in TZM.bl cells [2] was 5.33 µg/mL, the IC50, titer in TZM.bl cells [3] was 5.16 µg/mL and the IC80, titer in TZM.bl cells [3] was over 10 µg/mL. For the same substance, the IC50, titer in TZM.bl cells [4] was 2.22 µg/mL, the IC80, titer in TZM.bl cells [4] was 9.94 µg/mL and the IC50, titer in TZM.bl cells [5] was 6.71 µg/mL. The IC80, titer in TZM.bl cells [5] was over 10 µg/mL, the IC50, titer in TZM.bl cells [6] was 0.132 µg/mL and the IC80, titer in TZM.bl cells [6] was 1.53 µg/mL. For the same substance, the IC50, titer in TZM.bl cells [7] was 2.69 µg/mL, the IC80, titer in TZM.bl cells [7] was over 10 µg/mL and the IC50, titer in TZM.bl cells [8] was 1.28 µg/mL. For the same substance, the IC80, titer in TZM.bl cells [8] was 9.28 µg/mL, the IC50, titer in TZM.bl cells [9] was 2.3 µg/mL and the IC80, titer in TZM.bl cells [9] was 8.58 µg/mL. It also gave an IC50, titer in TZM.bl cells [10] of 0.109 µg/mL, an IC80, titer in TZM.bl cells [10] of 0.837 µg/mL and an IC50, titer in TZM.bl cells [11] of 0.351 µg/mL. The IC80, titer in TZM.bl cells [11] was 1.88 µg/mL, the IC50, titer in TZM.bl cells [12] was 0.722 µg/mL and the IC80, titer in TZM.bl cells [12] was 6.5 µg/mL. It also gave an IC50, titer in TZM.bl cells [13] of 1.64 µg/mL, an IC80, titer in TZM.bl cells [13] of 7.04 µg/mL and an IC50, titer in TZM.bl cells [14] of 0.203 µg/mL. For the same substance, the IC80, titer in TZM.bl cells [14] was 1.69 µg/mL, the IC50, titer in TZM.bl cells [15] was 0.445 µg/mL and the IC80, titer in TZM.bl cells [15] was 2.71 µg/mL. The IC50, titer in TZM.bl cells [16] was 1.35 µg/mL, the IC80, titer in TZM.bl cells [16] was 8.13 µg/mL and the IC50, titer in TZM.bl cells [17] was 0.156 µg/mL. The IC80, titer in TZM.bl cells [17] was 0.884 µg/mL, the IC50, titer in TZM.bl cells [18] was 0.094 µg/mL and the IC80, titer in TZM.bl cells [18] was 1.23 µg/mL. For the same substance, the IC50, titer in TZM.bl cells [19] was 0.148 µg/mL, the IC80, titer in TZM.bl cells [19] was 0.802 µg/mL and the IC50, titer in TZM.bl cells [20] was 3.98 µg/mL. The IC80, titer in TZM.bl cells [20] was over 10 µg/mL.

For N49P9 (antibody), the IC50 [2] was over 50 µg/mL, the IC80 [2] was over 50 µg/mL and the MPI [2] was 40. The IC50 [4] was over 50 µg/mL, the IC80 [4] was over 50 µg/mL and the MPI [4] was 48. It also gave an IC50 [5] of 0.453 µg/mL, an IC80 [5] of 2.03 µg/mL and an MPI [5] of 100. For the same substance, the IC50 [6] was 0.285 µg/mL, the IC80 [6] was 0.986 µg/mL and the MPI [6] was 100. It also gave an IC50 [7] of 0.154 µg/mL, an IC80 [7] of 0.519 µg/mL and an MPI [7] of 99. The IC50 [8] was 2.09 µg/mL, the IC80 [8] was 7.38 µg/mL and the MPI [8] was 100. For the same substance, the IC50 [9] was 0.187 µg/mL, the IC80 [9] was 0.898 µg/mL and the MPI [9] was 98. For the same substance, the IC50 [10] was 0.023 µg/mL, the IC80 [10] was 0.178 µg/mL and the MPI [10] was 100. For the same substance, the IC50 [11] was over 50 µg/mL, the IC80 [11] was over 50 µg/mL and the MPI [11] was 17. The IC50 [12] was 0.077 µg/mL, the IC80 [12] was 0.274 µg/mL and the MPI [12] was 100. It also gave an IC50 [13] of 0.032 µg/mL, an IC80 [13] of 0.091 µg/mL and an MPI [13] of 100. The IC50 [14] was 0.071 µg/mL, the IC80 [14] was 0.291 µg/mL and the MPI [14] was 100. The IC50 [15] was 0.241 µg/mL, the IC80 [15] was 0.691 µg/mL and the MPI [15] was 100. The IC50 [17] was 1.41 µg/mL, the IC80 [17] was 8.21 µg/mL and the MPI [17] was 99. For the same substance, the IC50 [18] was 0.058 µg/mL, the IC80 [18] was 0.165 µg/mL and the MPI [18] was 100. It also gave an IC50 [19] of 0.083 µg/mL, an IC80 [19] of 0.339 µg/mL and an MPI [19] of 100. The IC50 [20] was 0.362 µg/mL, the IC80 [20] was 1.14 µg/mL and the MPI [20] was 100.

N49P9.1 (antibody) showed an IC50 [2] of over 50 µg/mL, an IC80 [2] of over 50 µg/mL and an MPI [2] of 6. For the same substance, the IC50 [4] was over 50 µg/mL, the IC80 [4] was over 50 µg/mL and the MPI [4] was 11. It also gave an IC50 [5] of 0.635 µg/mL, an IC80 [5] of 2.02 µg/mL and an MPI [5] of 100. The IC50 [6] was 0.36 µg/mL, the IC80 [6] was 1.88 µg/mL and the MPI [6] was 99. The IC50 [7] was 0.808 µg/mL, the IC80 [7] was 3.14 µg/mL and the MPI [7] was 95. It also gave an IC50 [8] of 2.16 µg/mL, an IC80 [8] of 8 µg/mL and an MPI [8] of 99. It also gave an IC50 [9] of 0.433 µg/mL, an IC80 [9] of 3.18 µg/mL and an MPI [9] of 96. It also gave an IC50 [10] of 0.026 µg/mL, an IC80 [10] of 0.182 µg/mL and an MPI [10] of 100. The IC50 [11] was over 50 µg/mL, the IC80 [11] was over 50 µg/mL and the MPI [11] was 17. For the same substance, the IC50 [12] was 0.102 µg/mL, the IC80 [12] was 0.362 µg/mL and the MPI [12] was 100. For the same substance, the IC50 [13] was 0.029 µg/mL, the IC80 [13] was 0.106 µg/mL and the MPI [13] was 100. For the same substance, the IC50 [14] was 0.064 µg/mL, the IC80 [14] was 0.231 µg/mL and the MPI [14] was 100. It also gave an IC50 [15] of 0.127 µg/mL, an IC80 [15] of 0.468 µg/mL and an MPI [15] of 100. The IC50 [17] was 1.65 µg/mL, the IC80 [17] was 9.44 µg/mL and the MPI [17] was 99. The IC50 [18] was 0.051 µg/mL, the IC80 [18] was 0.241 µg/mL and the MPI [18] was 100. It also gave an IC50 [19] of 0.049 µg/mL, an IC80 [19] of 0.283 µg/mL and an MPI [19] of 100. For the same substance, the IC50 [20] was 0.447 µg/mL, the IC80 [20] was 1.29 µg/mL and the MPI [20] was 100.

In the case of N49P19 (antibody), the IC50 [2] is reported as over 50 µg/mL, the IC80 [2] is reported as over 50 µg/mL and the MPI [2] is reported as 17. It also gave an IC50 [4] of over 50 µg/mL, an IC80 [4] of over 50 µg/mL and an MPI [4] of 19. The IC50 [5] was 0.95 µg/mL, the IC80 [5] was 4.7 µg/mL and the MPI [5] was 100. The IC50 [6] was over 50 µg/mL, the IC80 [6] was over 50 µg/mL and the MPI [6] was 13. The IC50 [7] was over 50 µg/mL, the IC80 [7] was over 50 µg/mL and the MPI [7] was 15. For the same substance, the IC50 [8] was 1.24 µg/mL, the IC80 [8] was 4.4 µg/mL and the MPI [8] was 100. For the same substance, the IC50 [9] was over 50 µg/mL, the IC80 [9] was over 50 µg/mL and the MPI [9] was 0. For the same substance, the IC50 [10] was over 50 µg/mL, the IC80 [10] was over 50 µg/mL and the MPI [10] was 30. It also gave an IC50 [11] of over 50 µg/mL, an IC80 [11] of over 50 µg/mL and an MPI [11] of 30. It also gave an IC50 [12] of over 50 µg/mL, an IC80 [12] of over 50 µg/mL and an MPI [12] of 30. The IC50 [13] was 0.234 µg/mL, the IC80 [13] was 1.37 µg/mL and the MPI [13] was 100. It also gave an IC50 [14] of 0.169 µg/mL, an IC80 [14] of 0.859 µg/mL and an MPI [14] of 100. The IC50 [15] was 0.425 µg/mL, the IC80 [15] was 1.42 µg/mL and the MPI [15] was 100. It also gave an IC50 [17] of 17.1 µg/mL, an IC80 [17] of over 50 µg/mL and an MPI [17] of 69. For the same substance, the IC50 [18] was 0.263 µg/mL, the IC80 [18] was 1.29 µg/mL and the MPI [18] was 100. For the same substance, the IC50 [19] was 38.4 µg/mL, the IC80 [19] was over 50 µg/mL and the MPI [19] was 56. The IC50 [20] was 1.19 µg/mL, the IC80 [20] was 4.14 µg/mL and the MPI [20] was 100.
